Patent US20150266956A1 (UNIVERSITY OF ROCHESTER, published 2015)

Target: T1, murine DC-STAMP (dendritic cell-specific transmembrane protein) (mouse, UniProt Q7TNJ0 1-470)
T1 construct: whole, on cells; Endogenous protein; In the immunoprecipitation and immunoblot it came from cell lysates (about 50 kDa reduced, about 100 kDa non-reduced); also called mouse DC-STAMP
T1 sequence (looked up): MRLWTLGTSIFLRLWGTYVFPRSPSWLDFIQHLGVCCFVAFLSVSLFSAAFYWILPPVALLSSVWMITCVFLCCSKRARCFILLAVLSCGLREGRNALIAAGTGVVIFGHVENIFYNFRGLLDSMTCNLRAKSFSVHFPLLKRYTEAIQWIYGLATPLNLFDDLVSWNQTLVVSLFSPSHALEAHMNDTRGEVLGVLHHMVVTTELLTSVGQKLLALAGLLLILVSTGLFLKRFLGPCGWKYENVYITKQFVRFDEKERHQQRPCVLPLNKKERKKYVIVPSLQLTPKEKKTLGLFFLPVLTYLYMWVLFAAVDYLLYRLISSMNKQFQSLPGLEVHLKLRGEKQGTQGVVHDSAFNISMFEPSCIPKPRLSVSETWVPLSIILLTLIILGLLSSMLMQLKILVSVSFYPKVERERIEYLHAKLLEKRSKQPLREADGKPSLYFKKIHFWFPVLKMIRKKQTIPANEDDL
Assay: immunoprecipitation and immunoblot of RANKL-treated CD11b+ RAW 264.7 cell lysate (FIG. 1A)
Description: After immunoprecipitation with the 1A2 mAb, immunoblotting was performed with either the 1A2 mAb, the KR104 rabbit polyclonal antibody (positive control), or an anti-mouse IgG antibody (negative control) under non-reducing (nr: −β-mercaptoethanol) or reducing (r: +β-mercaptoethanol) conditions. M: protein marker, black and white scanned overlay. Blot is representative of 4 separate trials. […] Numbers below bands represent densitometry values used as a semiquantitative measure of relative protein level. Blot is representative of 2 separate trials.
To study surface protein expression, a mAb was generated against a peptide in the fourth extracellular domain of DC-STAMP. For comparison, a polyclonal DC-STAMP antibody was used that has histologically shown surface expression on OC (Kukita et al., J. Exp. Med. 200:941-6 (2004)). CD11b+ cells were cultured for 2 days with RANKL and extracted membrane fraction proteins for immunoprecipitation with the 1A2 mAb. […] Both antibodies also recognize a protein at double the molecular weight (˜100 kDa) under non-reducing (nr) conditions. In both reducing and non-reducing conditions, the 1A2 DC-STAMP mAb has a more intense band for the same amount of protein loaded in each lane. […] The 1A2 mAb clone was conjugated to FITC and used to determine if surface membrane DC-STAMP on CD11b+ cells could be detected by flow cytometry.

- binding result: binds
B1: DC-STAMP monoclonal antibody 1A2 (antibody, V domains shown)
VH: QVTLKESGPGILQPSQTLSLTCSFSGFSLSTFGMGVGWIRQPSGKGLEWLAHIWWDDDKYYSPALKSRLTISKDTSKNQVFLKIANVDTADTATYYCVRIGSRSPFAYWGPGTLVTVSS
VL: DIVMTQAAFSNPVTLGTSASISCRSSKSLLHSNGITYLYWYLQKPGQSPQVLIYQMSNLASGVPDRFSSSGSGTDFTLRISRVEAEDVGVYYCAQNLELPWTFGGGTKLEIKR
notes: The antibody was FITC-conjugated for flow cytometry and immunofluorescence; also called 1A2 mAb; clone 1A2
